Earlier results in paper PMC6435036 (Molecular pharmaceutics, 2017).

Conditions: in humans

Question: With “ApoA-I: endogenous apolipoprotein A-I, main protein of HDL” as the substance, how does the “half-life of endogenous ApoA-I protein” value read?
Answer: Its value is 79.2 h.
